Source: US20190083600

Tested on: T1, RSV attachment (G) glycoprotein of RSV strain A2
T1 sequence: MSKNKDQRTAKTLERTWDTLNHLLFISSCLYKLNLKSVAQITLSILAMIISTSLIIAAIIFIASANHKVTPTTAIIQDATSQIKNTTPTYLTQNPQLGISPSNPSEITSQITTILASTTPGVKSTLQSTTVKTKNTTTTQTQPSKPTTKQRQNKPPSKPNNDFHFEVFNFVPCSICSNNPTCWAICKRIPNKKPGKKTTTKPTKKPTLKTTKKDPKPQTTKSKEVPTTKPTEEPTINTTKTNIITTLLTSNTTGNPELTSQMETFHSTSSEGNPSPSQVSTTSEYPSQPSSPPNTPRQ

Substance: cathepsin L
- G protein cleavage on virions treated in vitro with 50 ng/ul cathepsin L at pH 5.5 (immunoblot): When incubated with cathepsin L after growth, the virus that was grown in the presence of a cathepsin L inhibitor contained a cleaved G protein
